According to patent publication US20240018237A1 (SICHUAN KELUN BIOTECH BIOPHARMACEUTICAL, published 2024):

B1: 19F6-Hu35V10 (antibody, human IgG1, kappa, V domains shown)
VH: QVQLQESGPGLVKPSQTLSLTCTVSGYSITSDYAWNWIRQFPGKGLEWIGYISYSGSIRYNPSLKSRVTISRDTSKNQFSLKLSSVTAADTAVYYCARGEITYYFDYWGQGTLVTVSS
VL: ETTLTQSPAFMSATPGDKVTISCKASTDIDSDMNWYQQKPGKPPKLIISEGNTLRPGIPPRFSSSGYGTDFTFTIRKIESEDAADYYCLQSNDLPLTFGQGTKLEIKR
notes: humanized, human IgG1 / kappa
B2: 19F6-Hu34 (antibody, human IgG1, kappa, V domains shown)
VH: QVQLQESGPGLVKPSQTLSLTCTVSGYSITSDYAWNWIRQFPGKGLEWIGYISYSGSIRYNPSLKSRVTISRDTSKNQFSLKLSSVTAADTAVYYCARGEITYYFDYWGQGTLVTVSS
VL: DIQMTQSPSSLSASVGDRVTITCQTSTDIDDDLNWYQQKPGKPPKLLISEGNTLETGVPSRFSGSGSGTDFTFTISSLQPEDIADYYCLQSNDLPLTFGAGTKLEIKR
notes: humanized, human IgG1 / kappa
B3: 19F6-Hu14 (antibody, human IgG1, kappa, V domains shown)
VH: QVQLQESGPGLVKPSETLSLTCTVTGYSITSDYAWNWIRQPPGKGLEWMGYISYSGSIRYKPSLKDRITISRDTSKNQFSLKLSSVTAADTAVYYCARGEITYYFDYWGQGTLVTVSS
VL: DIQMTQSPSSLSASVGDRVTITCQTSTDIDDDLNWYQQKPGKPPKLLISEGNTLETGVPSRFSGSGSGTDFTFTISSLQPEDIADYYCLQSNDLPLTFGAGTKLEIKR
notes: humanized, human IgG1 / kappa
B4: 19F6-Hu22 (antibody, human IgG1, kappa, V domains shown)
VH: QVQLQESGPGLVKPSETLSLTCTVSGYSITSDYAWNWIRQPPGKGLEWMGYISYSGSIRYNPSLKDRITISRDTSKNQFSLKLSSVTAADTAVYYCARGEITYYFDYWGQGTLVTVSS
VL: DIQMTQSPSSLSASVGDRVTITCITTTDIDDDMNWYQQKPGKAPKLLISEGNTLQSGVPSRFSGSGYGTDFTLTISSLQPEDFATYYCLQSNDLPLTFGQGTKLEIKR
notes: humanized, human IgG1 / kappa
B5: 19F6-Hu21 (antibody, human IgG1, kappa, V domains shown)
VH: QVQLQESGPGLVKPSETLSLTCTVSGYSITSDYAWNWIRQPPGKGLEWMGYISYSGSIRYNPSLKDRITISRDTSKNQFSLKLSSVTAADTAVYYCARGEITYYFDYWGQGTLVTVSS
VL: DIQMTQSPSSLSASVGDRVTITCITTTDIDDDMNWYQQKPGKAPKLLISEGNTLRPGVPSRFSGSGYGTDFTLTISSLQPEDFATYYCLQSNDLPLTFGQGTKLEIKR
notes: humanized, human IgG1 / kappa
B6: 19F6-Hu13 (antibody, human IgG1, kappa, V domains shown)
VH: QVQLQESGPGLVKPSETLSLTCTVTGYSITSDYAWNWIRQPPGKGLEWMGYISYSGSIRYKPSLKDRITISRDTSKNQFSLKLSSVTAADTAVYYCARGEITYYFDYWGQGTLVTVSS
VL: DIQMTQSPSSLSASVGDRVTITCRASTDIDDDMNWYQQKPGKAPKLLIYEGNTLQSGVPSRFSGSGYGTDFTLTISSLQPEDFATYYCLQSNDLPLTFGQGTKLEIKR
notes: humanized, human IgG1 / kappa
B7: 19F6-Hu11 (antibody, human IgG1, kappa, V domains shown)
VH: QVQLQESGPGLVKPSETLSLTCTVTGYSITSDYAWNWIRQPPGKGLEWMGYISYSGSIRYKPSLKDRITISRDTSKNQFSLKLSSVTAADTAVYYCARGEITYYFDYWGQGTLVTVSS
VL: DIQMTQSPSSLSASVGDRVTITCITTTDIDDDMNWYQQKPGKAPKLLISEGNTLRPGVPSRFSGSGYGTDFTLTISSLQPEDFATYYCLQSNDLPLTFGQGTKLEIKR
notes: humanized, human IgG1 / kappa
B8: 19F6-Hu23 (antibody, human IgG1, kappa, V domains shown)
VH: QVQLQESGPGLVKPSETLSLTCTVSGYSITSDYAWNWIRQPPGKGLEWMGYISYSGSIRYNPSLKDRITISRDTSKNQFSLKLSSVTAADTAVYYCARGEITYYFDYWGQGTLVTVSS
VL: DIQMTQSPSSLSASVGDRVTITCRASTDIDDDMNWYQQKPGKAPKLLIYEGNTLQSGVPSRFSGSGYGTDFTLTISSLQPEDFATYYCLQSNDLPLTFGQGTKLEIKR
notes: humanized, human IgG1 / kappa
B9: 19F6-Hu33 (antibody, human IgG1, kappa, V domains shown)
VH: QVQLQESGPGLVKPSQTLSLTCTVSGYSITSDYAWNWIRQFPGKGLEWIGYISYSGSIRYNPSLKSRVTISRDTSKNQFSLKLSSVTAADTAVYYCARGEITYYFDYWGQGTLVTVSS
VL: DIQMTQSPSSLSASVGDRVTITCRASTDIDDDMNWYQQKPGKAPKLLIYEGNTLQSGVPSRFSGSGYGTDFTLTISSLQPEDFATYYCLQSNDLPLTFGQGTKLEIKR
notes: humanized, human IgG1 / kappa
B10: 19F6-Hu24 (antibody, human IgG1, kappa, V domains shown)
VH: QVQLQESGPGLVKPSETLSLTCTVSGYSITSDYAWNWIRQPPGKGLEWMGYISYSGSIRYNPSLKDRITISRDTSKNQFSLKLSSVTAADTAVYYCARGEITYYFDYWGQGTLVTVSS
VL: DIQMTQSPSSLSASVGDRVTITCQTSTDIDDDLNWYQQKPGKPPKLLISEGNTLETGVPSRFSGSGSGTDFTFTISSLQPEDIADYYCLQSNDLPLTFGAGTKLEIKR
notes: humanized, human IgG1 / kappa
B11: 19F6-Hu32 (antibody, human IgG1, kappa, V domains shown)
VH: QVQLQESGPGLVKPSQTLSLTCTVSGYSITSDYAWNWIRQFPGKGLEWIGYISYSGSIRYNPSLKSRVTISRDTSKNQFSLKLSSVTAADTAVYYCARGEITYYFDYWGQGTLVTVSS
VL: DIQMTQSPSSLSASVGDRVTITCITTTDIDDDMNWYQQKPGKAPKLLISEGNTLQSGVPSRFSGSGYGTDFTLTISSLQPEDFATYYCLQSNDLPLTFGQGTKLEIKR
notes: humanized, human IgG1 / kappa
B12: 19F6-Hu12 (antibody, human IgG1, kappa, V domains shown)
VH: QVQLQESGPGLVKPSETLSLTCTVTGYSITSDYAWNWIRQPPGKGLEWMGYISYSGSIRYKPSLKDRITISRDTSKNQFSLKLSSVTAADTAVYYCARGEITYYFDYWGQGTLVTVSS
VL: DIQMTQSPSSLSASVGDRVTITCITTTDIDDDMNWYQQKPGKAPKLLISEGNTLQSGVPSRFSGSGYGTDFTLTISSLQPEDFATYYCLQSNDLPLTFGQGTKLEIKR
notes: humanized, human IgG1 / kappa
B13: 19F6-Hu31 (antibody, human IgG1, kappa, V domains shown)
VH: QVQLQESGPGLVKPSQTLSLTCTVSGYSITSDYAWNWIRQFPGKGLEWIGYISYSGSIRYNPSLKSRVTISRDTSKNQFSLKLSSVTAADTAVYYCARGEITYYFDYWGQGTLVTVSS
VL: DIQMTQSPSSLSASVGDRVTITCITTTDIDDDMNWYQQKPGKAPKLLISEGNTLRPGVPSRFSGSGYGTDFTLTISSLQPEDFATYYCLQSNDLPLTFGQGTKLEIKR
notes: humanized, human IgG1 / kappa

Assays:
[1] = molecular target: T1, human ROR1 (full-length, on the cell surface) (human, UniProt Q01973 30-937); assay: flow cytometry, HT-29 cells
T1 construct: whole, on cells; the tumour cell lines carry their own ROR1; also called Ba/F3-ROR1 cells; Jeko-1
T1 sequence (Q01973 30-937): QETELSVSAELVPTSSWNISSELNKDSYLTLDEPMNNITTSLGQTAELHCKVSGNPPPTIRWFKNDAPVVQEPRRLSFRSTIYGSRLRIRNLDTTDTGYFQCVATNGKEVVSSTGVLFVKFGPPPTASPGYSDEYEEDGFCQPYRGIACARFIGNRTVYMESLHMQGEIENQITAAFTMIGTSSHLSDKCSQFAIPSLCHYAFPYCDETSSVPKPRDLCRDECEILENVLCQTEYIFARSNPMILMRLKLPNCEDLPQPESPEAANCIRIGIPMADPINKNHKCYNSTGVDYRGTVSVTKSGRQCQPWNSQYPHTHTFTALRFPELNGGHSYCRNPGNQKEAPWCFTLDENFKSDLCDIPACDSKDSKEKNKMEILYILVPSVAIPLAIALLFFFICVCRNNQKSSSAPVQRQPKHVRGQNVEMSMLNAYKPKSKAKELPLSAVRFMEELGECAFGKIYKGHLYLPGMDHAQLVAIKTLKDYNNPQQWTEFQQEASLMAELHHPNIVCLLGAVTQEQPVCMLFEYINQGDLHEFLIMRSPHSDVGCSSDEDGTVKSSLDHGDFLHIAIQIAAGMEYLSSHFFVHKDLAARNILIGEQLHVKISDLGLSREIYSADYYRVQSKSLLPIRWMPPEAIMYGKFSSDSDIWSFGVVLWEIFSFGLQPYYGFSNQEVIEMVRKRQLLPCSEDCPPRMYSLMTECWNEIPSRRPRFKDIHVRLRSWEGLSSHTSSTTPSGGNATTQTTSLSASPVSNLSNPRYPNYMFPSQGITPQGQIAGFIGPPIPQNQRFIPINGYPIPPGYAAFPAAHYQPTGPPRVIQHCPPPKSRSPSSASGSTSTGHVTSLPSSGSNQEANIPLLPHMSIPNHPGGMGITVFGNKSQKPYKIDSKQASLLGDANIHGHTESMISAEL
Experimental: (§1) The affinities of the anti-human ROR1 humanized antibodies to Ba/F3-ROR1, Jeko-1, HT-29 and A549 cells were detected by flow cytometry. The specific experimental steps were as follows: the BaBF3-ROR1, Jeko-1, HT-29 and A549 cells were incubated with the purified humanized antibodies of different concentration gradients on ice for 30 minutes, and the anti-ROR1 antibody UC961 with human IgG1 and the anti-TNP antibody were used as positive and negative controls, respectively.

[2] = molecular target: T1, human ROR1 (full-length, on the cell …); assay: flow cytometry, A549 cells
Experimental: as §1

[3] = molecular target: T1, human ROR1 (full-length, on the cell …); assay: flow cytometry, Jeko-1 cells
Experimental: as §1

[4] = molecular target: T1, human ROR1 (full-length, on the cell …); assay: flow cytometry, Ba/F3-ROR1 cells

| Binder | EC50 [1] [nM] | EC50 [2] [nM] | EC50 [3] [nM] | EC50 [4] [nM] |
| --- | --- | --- | --- | --- |
| B1 | 0.17 | 0.12 | 0.35 | 0.27 |
| B2 | 0.19 | 0.13 | 0.18 | 0.53 |
| B3 | 0.1 | 0.12 | 0.12 | 0.62 |
| B4 | 0.16 | 0.25 | 0.13 | 0.3 |
| B5 | 0.18 | 0.31 | 0.22 | 0.36 |
| B6 | 0.75 | 0.47 | 0.17 | 0.29 |
| B7 | 0.08 | 0.17 | 0.15 | 0.25 |
| B8 | 0.62 | 0.14 | 0.21 | 0.35 |
| B9 | 0.78 | 0.25 | 0.15 | 0.35 |
| B10 | 0.25 | 0.24 | 0.2 | 0.39 |
| B11 | 0.09 | 0.09 | 0.18 | 0.44 |
| B12 | 0.11 | 0.16 | 0.17 | 0.43 |
| B13 | 0.1 | 0.09 | 0.18 | 0.3 |
